Variants at the floor of the assay were thinned out.
B1: TPR 5TU (parent)
chain: GGAUCUUCUCGAUCUAACAAAAAAGACAAAUCUGCCACAAAGCUUGAGAGCAUCUUCGGAUGCAGAGGCGGCAGCCUUCGGUGGCGCGAUAGCGCCAACGUUCUCAACUAUGACACGCAAAACGCGUGCUCCGUUGAAUGGAGUUUAUCAUG

Variants of: B1
Experiment: polymerase ribozyme fitness, log enrichment relative to wild type (log ratio); higher = more active; in vitro selection for triplet polymerase activity
In short: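 Fitness compares each genotype's enrichment to that of the wild type on a logarithmic scale, averaging replicates with inverse-variance weights. The logarithm is base 2. Enrichment came from Illumina sequencing of input and output libraries after one triplicate round of in vitro selection, which included frozen incubation at −7 °C, of PCR-built, transcribed mutant libraries of each subunit of a heterodimeric triplet polymerase ribozyme. Only genotypes with ≥10 input reads and ≥1 read per output were kept.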

Row | Variant | polymerase ribozyme fitness (log ratio)
1 | A29C U53A A73C G84C C103G A107U U134G | ≤ -4.2
2 | A29U C69A G84A G141A | ≤ -4.2
3 | A29U G59C G88U C95G | ≤ -4.2
4 | A29U U55A A60G G86A U130C | ≤ -4.2
5 | A29C U44G U55A G68A G71U G80A C93A A98U A138C | ≤ -4.2
6 | A30U C87G U101G U146A C149G | ≤ -4.2
7 | A30C A41C G67C G83U G88U G141A | ≤ -4.2
8 | A30U C43U G70U C87G | ≤ -4.2
9 | A29U G86A C87U C105A C116A U146A | ≤ -4.2
10 | A30C G65A G67C G100A A119U | ≤ -4.2
11 | A29U C35A A60G C85A G126A | ≤ -4.2
12 | A29U A41C U61A G67U G86U G92A C93A G133C | ≤ -4.2
13 | A29G U55G C57G C87A A107G | ≤ -4.2
14 | A30G C93A | -3.95
15 | A29C G58C | -3.97
16 | A29C G58U | -4.16
17 | A29U G59C U82A C93U | ≤ -4.2
18 | A30G C95U | -3.14
19 | A30G G42U A113U C114U C125U | ≤ -4.2
20 | A29C G59A G94U U102A A106G G141A | ≤ -4.2
21 | A30U C54U C85U | -3.87

Row | Variant | polymerase ribozyme fitness (log ratio)
22 | A30U A66G A115U G143A | ≤ -4.2
23 | A29C U31G C87A U139G | ≤ -4.2
24 | A29U G68A | ≤ -4.2
25 | A29G G48A C75U | ≤ -4.2
26 | A29G C35G U56G G68A G81A C99A C114A G143C | ≤ -4.2
27 | A30C A47G G70U U102G G126U G152U | ≤ -4.2
28 | A30U C43G | ≤ -4.2
29 | A30U C38G G50C C87G G117A | ≤ -4.2
30 | A30G C54U C76G A91C | ≤ -4.2
31 | A29G C38U U53G C85G A98U C108A G128U | -3.97
32 | A29C G74C | ≤ -4.2
33 | A29G C35G G84C G100A | ≤ -4.2
34 | A29G C51U C96G | ≤ -4.2
35 | A29U C32U A122G | ≤ -4.2
36 | A30U C76A | -3.82
37 | A30G U33A U55A A91C C132U A142U | ≤ -4.2
38 | A29U A52U U53A G80A C87A G128U U146C | ≤ -4.2
39 | A29U A52C | ≤ -4.2
40 | A29U A41U C69U C95A C118G C125U U148A | ≤ -4.2
41 | A29U G92A A142C | ≤ -4.2
42 | A29U G46U G59A G70A A89U G117U U148A | ≤ -4.2

Row | Variant | polymerase ribozyme fitness (log ratio)
43 | A30C C43U A49C C85G C108G | ≤ -4.2
44 | A29G | -1.81
45 | A29U | -3.4
46 | A29U A137G | ≤ -4.2
47 | A30G U45A U78C G80C A89C G94U | ≤ -4.2
48 | A30U A52C G67A G68A C87U A91G C95G U127C G143U U148G | ≤ -4.2
49 | A29U U45A G70A C85G | ≤ -4.2
50 | A30G U56A C85G C132U | ≤ -4.2
51 | A29G U90G A122U A142U C149G | ≤ -4.2
52 | A30U C32G C54A C57G C99U A107G | ≤ -4.2
53 | A29G A37U G94C G141U | ≤ -4.2
54 | A30U A73U G74U C76G U90G U139C | ≤ -4.2
55 | A30U U44A C85A A110C U111C | ≤ -4.2
56 | A30G A91G | ≤ -4.2
57 | A29G G42A G81A C85U | -4.09
58 | A30U C38U | -3.76
59 | A29U U53A U56A A64U U77C A98G C103G U148C | ≤ -4.2
60 | A29G U31A C43G | ≤ -4.2
61 | A30C G59A | ≤ -4.2
62 | A29G C43U A66C C96U C103A | ≤ -4.2
63 | A30U G50C C96U U104C G136U | ≤ -4.2

Row | Variant | polymerase ribozyme fitness (log ratio)
64 | A30C A41G C76U G83A A89U G124A C131U C132G G143A U144A C149A | ≤ -4.2
65 | A30C G62U U90G C95A G124A A138C U151C | ≤ -4.2
66 | A29G C87A A110C G141U | ≤ -4.2
67 | A29U C63U C114U | ≤ -4.2
68 | A30G C95A U104A C118U C131A A138U G141A | ≤ -4.2
69 | A30U A106G | -2.9
70 | A30U A66G G68A C76U G141U A142U | ≤ -4.2
71 | A30U G83U G141U | -3.89
72 | A29G G50A G80U A91C U134A U146C | ≤ -4.2
73 | A29C U53A | ≤ -4.2
74 | A29G A60C G80A A121U G141U | ≤ -4.2
75 | A29G U78G G84C | ≤ -4.2
76 | A30C C95U | -4.11
77 | A29U G81U G92C C116G G140A U148C | ≤ -4.2
78 | A30G C54G G68A C95G A121C | ≤ -4.2
79 | A30C G48C G67A A91U G100U | ≤ -4.2
80 | A30C A64U G65A G70A G84U A91C C103U G136C C149G | ≤ -4.2
81 | A30U G94U | ≤ -4.2
82 | A30U G94A | -3.7
83 | A30C G68A C87U A106U A120G | ≤ -4.2

From the RNAGym collection of RNA variant scans (doi:10.1073/pnas.2313332121)
